From patent publication US20200109190A1 (AstraZeneca / MedImmune, published 2020)

How the values were obtained:
LukSF [1] = target: T1, LukSF (Staphylococcus aureus); assay: cell-based or functional assay
HlgAB [2] = target: T2, HlgAB (Staphylococcus aureus, UniProt P0A074 30-309); assay: cell-based or functional assay
T2 sequence 1: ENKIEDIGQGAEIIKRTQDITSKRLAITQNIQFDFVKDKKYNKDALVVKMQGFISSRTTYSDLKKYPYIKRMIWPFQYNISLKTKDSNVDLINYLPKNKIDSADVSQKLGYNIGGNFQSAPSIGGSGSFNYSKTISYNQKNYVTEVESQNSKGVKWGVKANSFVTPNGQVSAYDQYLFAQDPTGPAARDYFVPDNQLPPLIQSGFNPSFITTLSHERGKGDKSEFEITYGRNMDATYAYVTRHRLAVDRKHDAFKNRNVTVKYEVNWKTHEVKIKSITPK
T2 sequence 2: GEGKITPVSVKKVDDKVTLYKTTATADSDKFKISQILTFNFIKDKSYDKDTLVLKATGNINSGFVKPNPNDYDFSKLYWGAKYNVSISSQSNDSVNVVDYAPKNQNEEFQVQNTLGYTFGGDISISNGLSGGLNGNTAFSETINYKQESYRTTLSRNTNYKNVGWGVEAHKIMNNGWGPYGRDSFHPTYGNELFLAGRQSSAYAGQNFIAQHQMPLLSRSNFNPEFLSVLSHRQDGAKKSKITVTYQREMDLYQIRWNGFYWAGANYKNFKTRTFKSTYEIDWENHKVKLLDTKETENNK

S. aureus LukF [3] = target: T3, S. aureus LukF (Staphylococcus aureus); assay: method not stated at Table 8; BLI (Octet) is described in Example 4
LukSF [4] = target: T1, LukSF; assay: cell-based or functional assay; remark: listed apart in the source
HlgAB [5] = target: T2, HlgAB; assay: cell-based or functional assay; remark: listed apart in the source
LukSF [6] = target: T1, LukSF; assay: cell-based or functional assay; remark: listed apart in the source
HlgAB [7] = target: T2, HlgAB; assay: cell-based or functional assay; remark: listed apart in the source
LukED = LukED (Staphylococcus aureus, UniProt O54081 29-314); assay: cell-based or functional assay
LukSF [8] = target: T1, LukSF; assay: cell-based or functional assay; remark: listed apart in the source
HlgCB = target: T4, HlgCB (Staphylococcus aureus, UniProt Q07227 30-315); assay: cell-based or functional assay
T4 sequence 1: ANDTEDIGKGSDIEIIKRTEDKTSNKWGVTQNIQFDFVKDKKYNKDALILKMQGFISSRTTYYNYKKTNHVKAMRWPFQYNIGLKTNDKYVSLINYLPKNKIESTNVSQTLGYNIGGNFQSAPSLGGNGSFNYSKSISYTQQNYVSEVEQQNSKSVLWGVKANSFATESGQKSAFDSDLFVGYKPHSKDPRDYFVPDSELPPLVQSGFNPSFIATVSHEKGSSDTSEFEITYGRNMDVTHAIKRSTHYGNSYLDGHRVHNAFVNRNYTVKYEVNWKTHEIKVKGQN
T4 sequence 2: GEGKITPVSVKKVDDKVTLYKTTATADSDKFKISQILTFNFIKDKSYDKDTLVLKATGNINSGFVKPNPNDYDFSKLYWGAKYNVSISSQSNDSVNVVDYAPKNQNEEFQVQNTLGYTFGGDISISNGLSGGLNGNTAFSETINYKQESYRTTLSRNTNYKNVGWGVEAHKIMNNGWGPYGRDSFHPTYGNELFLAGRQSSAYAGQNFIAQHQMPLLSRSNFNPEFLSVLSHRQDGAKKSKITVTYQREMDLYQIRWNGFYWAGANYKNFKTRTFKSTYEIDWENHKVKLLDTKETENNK

S. aureus LukD [9] = target: T5, S. aureus LukD (Staphylococcus aureus, UniProt Q2FXB1 27-327); assay: BLI (Octet384), antibody captured on anti-human IgG Fc biosensors, antigen in solution; dark sample
T5 sequence: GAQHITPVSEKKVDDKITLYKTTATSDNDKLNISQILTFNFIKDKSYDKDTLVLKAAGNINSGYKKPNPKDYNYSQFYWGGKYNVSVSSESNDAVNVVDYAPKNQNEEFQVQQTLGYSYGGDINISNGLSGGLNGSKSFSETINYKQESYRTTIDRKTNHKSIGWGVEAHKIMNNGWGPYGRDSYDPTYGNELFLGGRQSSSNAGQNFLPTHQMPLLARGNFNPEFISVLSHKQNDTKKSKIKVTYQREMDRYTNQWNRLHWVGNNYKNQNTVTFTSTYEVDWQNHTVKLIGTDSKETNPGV

S. aureus LukF [10] = target: T3, S. aureus LukF; assay: as above
S. aureus HlgB [11] = target: T6, S. aureus HlgB (Staphylococcus aureus, UniProt P0A075 27-325); assay: as above
T6 construct: also called HIgB
T6 sequence: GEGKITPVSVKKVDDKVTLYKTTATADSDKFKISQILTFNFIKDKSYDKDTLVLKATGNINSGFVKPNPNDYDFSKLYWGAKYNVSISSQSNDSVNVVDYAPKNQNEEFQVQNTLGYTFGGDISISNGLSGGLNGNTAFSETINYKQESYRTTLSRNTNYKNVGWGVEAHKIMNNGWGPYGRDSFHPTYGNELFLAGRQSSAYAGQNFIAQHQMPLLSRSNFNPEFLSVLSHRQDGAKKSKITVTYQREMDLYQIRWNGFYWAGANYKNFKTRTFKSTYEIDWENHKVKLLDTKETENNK

S. aureus LukD [12] = target: T5, S. aureus LukD; assay: BLI (Octet384), antibody captured on anti-human IgG Fc biosensors, antigen in solution; light-stressed sample
S. aureus LukF [13] = target: T3, S. aureus LukF; assay: as above
S. aureus HlgB [14] = target: T6, S. aureus HlgB; assay: as above

B1: SAN481-SY-YTE (antibody, V domains shown)
VH: QLQLVESGGGAVQPGRSLKLSCAASGFNFSTYAMHWVRQAPGRGLEWVAVTSFDGSNEYYIDSVKGRFTISRDNTKNTLYLQMTGLRVEDTALYFCARDEYTGGWYSVGYWGQGTLVTVSS
VL: QSVLTQPPSASGTPGQRVTISCSGSSYNIGSNYVYWYQQFPGTAPKLLISRSIQRPSGVPDRFSGSKSVTSASLAISGLRSEDEADYYCAAWDDSLRAWVFGGGTKLTVLG
notes: also called QD2; SAN481VL26S32Y-YTE
- IC50 (LukSF) HL-60; Dark sample (LukSF [1]): 0.221 µg/mL
- IC50 (LukSF) HL-60; Light sample (LukSF [1]): 0.241 µg/mL
- IC50 (HIgAB) HL-60; Dark sample (HlgAB [2]): 0.721 µg/mL
- IC50 (HIgAB) HL-60; Light sample (HlgAB [2]): 0.736 µg/mL
- Kd (S. aureus LukF [3]): 101 pM
- IC50 Fold loss vs. WT (LukSF) (LukSF [4]): 1.14 fold
- IC50 for LukSF (LukSF [4]): 0.183 µg/mL
- IC50 Fold loss vs. WT (HIgAB) (HlgAB [5]): 0.97 fold
- IC50 for HIgAB (HlgAB [5]): 0.551 µg/mL
- IC50 (LukSF) HL-60 (LukSF [6]): 0.18 µg/mL
- IC50 (HIgAB) HL-60 (HlgAB [7]): 0.55 µg/mL

B2: SAN481-SYT-YTE (antibody, V domains shown)
VH: QLQLVESGGGAVQPGRSLKLSCAASGFTFSTYAMHWVRQAPGRGLEWVAVTSFDGSNEYYIDSVKGRFTISRDNTKNTLYLQMTGLRVEDTALYFCARDEYTGGWYSVGYWGQGTLVTVSS
VL: QSVLTQPPSASGTPGQRVTISCSGSSYNIGSNYVYWYQQFPGTAPKLLISRSIQRPSGVPDRFSGSKSVTSASLAISGLRSEDEADYYCAAWDDSLRAWVFGGGTKLTVLG
notes: also called QD5
- IC50 (LukSF) HL-60; Dark sample (LukSF [1]): 0.163 µg/mL
- IC50 (LukSF) HL-60; Light sample (LukSF [1]): 0.184 µg/mL
- IC50 (HIgAB) HL-60; Dark sample (HlgAB [2]): 0.576 µg/mL
- IC50 (HIgAB) HL-60; Light sample (HlgAB [2]): 0.645 µg/mL
- Kd (S. aureus LukF [3]): 101 pM
- IC50 (read off the curve) (LukED): ~4 µg/mL
- IC50 (read off the curve) (LukSF [8]): ~0.4 µg/mL
- IC50 (read off the curve) (HlgCB): ~2 µg/mL
- Kd (S. aureus LukD [9]): < 1 pM
- koff (S. aureus LukD [9]): < 1e-07 s⁻¹
- kon (S. aureus LukD [9]): 279000 M⁻¹ s⁻¹
- Kd (S. aureus LukF [10]): 101 pM
- koff (S. aureus LukF [10]): 3.69e-05 s⁻¹
- kon (S. aureus LukF [10]): 365000 M⁻¹ s⁻¹
- Kd (S. aureus HlgB [11]): 19.1 pM
- koff (S. aureus HlgB [11]): 4.88e-06 s⁻¹
- kon (S. aureus HlgB [11]): 255000 M⁻¹ s⁻¹
- IC50 Fold loss vs. WT (LukSF) (LukSF [4]): 1.01 fold
- IC50 for LukSF (LukSF [4]): 0.162 µg/mL
- IC50 Fold loss vs. WT (HIgAB) (HlgAB [5]): 0.951 fold
- IC50 for HIgAB (HlgAB [5]): 0.54 µg/mL
- Kd (S. aureus LukD [12]): < 1 pM
- koff (S. aureus LukD [12]): < 1e-07 s⁻¹
- kon (S. aureus LukD [12]): 263000 M⁻¹ s⁻¹
- Kd (S. aureus LukF [13]): < 1 pM
- koff (S. aureus LukF [13]): < 1e-07 s⁻¹
- kon (S. aureus LukF [13]): 257000 M⁻¹ s⁻¹
- Kd (S. aureus HlgB [14]): < 1 pM
- koff (S. aureus HlgB [14]): < 1e-07 s⁻¹
- kon (S. aureus HlgB [14]): 244000 M⁻¹ s⁻¹
- IC50 (LukSF) HL-60 (LukSF [6]): 0.16 µg/mL
- IC50 (HIgAB) HL-60 (HlgAB [7]): 0.54 µg/mL

B3: SAN481-T-YTE (antibody, V domains shown)
VH: QLQLVESGGGAVQPGRSLKLSCAASGFTFSTYAMHWVRQAPGRGLEWVAVTSFDGSNEYYIDSVKGRFTISRDNTKNTLYLQMTGLRVEDTALYFCARDEYTGGWYSVGYWGQGTLVTVSS
VL: QSVLTQPPSASGTPGQRVTISCSGNSYNIGSNSVYWYQQFPGTAPKLLISRSIQRPSGVPDRFSGSKSVTSASLAISGLRSEDEADYYCAAWDDSLRAWVFGGGTKLTVLG
notes: also called QD3; SAN481VH28T-YTE
- IC50 (LukSF) HL-60; Dark sample (LukSF [1]): 0.193 µg/mL
- IC50 (LukSF) HL-60; Light sample (LukSF [1]): 0.205 µg/mL
- IC50 (HIgAB) HL-60; Dark sample (HlgAB [2]): 0.707 µg/mL
- IC50 (HIgAB) HL-60; Light sample (HlgAB [2]): 0.624 µg/mL
- Kd (S. aureus LukF [3]): < 1 pM
- IC50 Fold loss vs. WT (LukSF) (LukSF [4]): 1.04 fold
- IC50 for LukSF (LukSF [4]): 0.166 µg/mL
- IC50 Fold loss vs. WT (HIgAB) (HlgAB [5]): 0.948 fold
- IC50 for HIgAB (HlgAB [5]): 0.539 µg/mL
- IC50 (LukSF) HL-60 (LukSF [6]): 0.17 µg/mL
- IC50 (HIgAB) HL-60 (HlgAB [7]): 0.54 µg/mL
